This experiment deals with human LAG-3 expressed on cells (human) (UniProt P18627). Nature of the experiment: cell-based or functional assay.
Sequence of human LAG-3 expressed on cells (human) (P18627 23-525 limits assumed): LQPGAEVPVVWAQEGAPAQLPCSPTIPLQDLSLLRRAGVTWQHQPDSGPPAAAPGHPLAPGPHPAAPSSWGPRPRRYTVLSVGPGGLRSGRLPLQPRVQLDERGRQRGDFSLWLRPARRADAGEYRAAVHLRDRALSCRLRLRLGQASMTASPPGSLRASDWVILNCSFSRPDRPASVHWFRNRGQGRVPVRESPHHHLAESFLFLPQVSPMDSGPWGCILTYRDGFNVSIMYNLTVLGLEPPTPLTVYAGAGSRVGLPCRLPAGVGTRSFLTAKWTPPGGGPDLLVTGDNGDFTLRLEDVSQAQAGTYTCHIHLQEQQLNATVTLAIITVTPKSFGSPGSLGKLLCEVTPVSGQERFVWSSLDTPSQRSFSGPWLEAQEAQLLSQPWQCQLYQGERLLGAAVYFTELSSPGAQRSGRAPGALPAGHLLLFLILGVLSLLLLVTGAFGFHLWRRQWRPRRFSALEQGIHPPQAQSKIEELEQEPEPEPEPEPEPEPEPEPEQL

For “Human anti-LAG3 antibody (Relatlimab analogue)”, the EC50 (M), NFAT-Luciferase Reporter Gene assay (LAG-3:MHCII) stood at 4e-09 M.

As to Mouse anti-LAG3 antibody clone 17B4, the EC50 (M), NFAT-Luciferase Reporter Gene assay (LAG-3:MHCII) turned out to be 3.2e-08 M.
